Tested on: MS2 coat protein
Experiment: apparent KD of MS2 coat protein; designed switch direction (-1 OFF switch, 1 ON switch): -1; higher = weaker reporter binding
Summary of the method: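 The reported apparent KD is a per-design median over clusters, from curve fits of normalised cluster fluorescence. Protein titrations used SNAP-549-labelled MS2 coat protein, doubled from 0.7 or 1.5 nM to 3 µM, in Tris-HCl pH 7.5 buffer with KCl, MgCl2, BSA, DTT, tRNA and Tween-20, with no input, 200 uM small-molecule ligand, or an oligonucleotide input. The RNA switches were transcribed on Illumina chips by stalled E. coli RNA polymerase.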

[1] = Eterna round: R95, input ligand: microRNA oligo, concentration not stated
[2] = Eterna round: R95, input ligand: FMN 200 uM
[3] = Eterna round: R95, input ligand: none
[4] = input ligand: microRNA oligo, concentration not stated

Row | Sequence | apparent KD of MS2 coat protein (input ligand: FMN 200 uM) | apparent KD of MS2 coat protein (input ligand: none) | apparent KD of MS2 coat protein [1] | apparent KD of MS2 coat protein [4] | other results
1 | GCUAGUCAUGUCAGGAUAUGCUGUUCCUUGGAACAGCAGAAGGGACAUGAGGAUCACCCAUGUGCCUAACUAGC [Mat - Exclusion 4 - JL Mod - D12] (Eterna round: R97, puzzle: Brourd's mod of Exclusion 4) | 558 nM | 43.8 nM | – | – | –
2 | CGGAUGUUAGGAUAUUAGUAGUAGUCAGAAUAGACUAUUACUGAGAAGGAACAUGAGGAUCACCCAUGUAUCCG [Eli x4 4.20] (Eterna round: R97, puzzle: Exclusion 4) | 47.4 nM | 17.7 nM | – | – | –
3 | GCGUGACAUGAGGAUCACCCAUGUGAGGAUAUCUGGAUAAUCUUUAUUUUAGAUAUCCAGAGAAGGCACAUGCU [Ex1-3: 3Z] (puzzle: Exclusion 1) | – | – | 170 nM | – | –
4 | UACGGGUCAGGAUAUGCGAGAGAUUGGGAAAUAGGAAGGUAGCAGAAGGGACAUGAGGAUCACCCAUGUGAAGC [JR_Exclu4_Sub097] (puzzle: Exclusion 4) | – | – | 25.9 nM | – | apparent KD of MS2 coat protein [2]: 32.2 nM; apparent KD of MS2 coat protein [3]: 28.8 nM
5 | GUCAGCUCGUGAGGAUAUACAUGAGGAUCACCCAUGUGAUCAAUAGCAGCUUCGGCUGCAUUAAUGUAGAAGGCACGAGCUGAC [ENG2/5-A1] (Eterna round: R96, puzzle: Exclusion NG 2) | 61.8 nM | 152 nM | – | 22.2 nM | –
6 | AUAUAGAUGGUCAGGAUAUGCUAGUGAUAACAGUAGCAGAAGGGACAUGAGGAUCACCCAUGUGGAUACCGCAC [Brourd's EX4 #7] (Eterna round: R97, puzzle: Brourd's mod of Exclusion 4) | 122 nM | 31.9 nM | – | – | –
7 | GUCGUGCGGCUGUGCUGUACGAGUACAUGAGGAUCACCCAUGUAGGAUAUGGUUCGUUUUGCGUGCUAGAAGGGCGUGCGUUUU [Excl-NG3-LRO17] (Eterna round: R96, puzzle: Exclusion NG 3) | 17.9 nM | 21.4 nM | – | 17 nM | –
8 | GCACCAUGGCUUACUAGCCGUUAAACAUGAGGAUCACCCAUGUAGGAUAUGGUCUGGAUUACAGGCCAGAAGGGCGUAAGGUGC [JL Eli 026 mod] (Eterna round: R96, puzzle: Exclusion NG 3) | 15.9 nM | 19.8 nM | – | 13.1 nM | –
9 | CUCAUUCGAGGAUAUGCAGAAUGGGUCCAAUCAUAAGACAUACAUGAGGAUCACCCAUGUAGAAGGCGGCCAUC [Eternabot (L1) Solution 59] (Eterna round: R97, puzzle: Exclusion 2) | 26 nM | 25.6 nM | – | – | –
10 | GCUCGCGGGCAAGGAUAUCCUACGCUGUUCUGGCUCGUGUCUGUUACAUGAGGAUCACCCAUGUGGGAGAAGGUGCACCAGGGC [Design 47] (Eterna round: R96, puzzle: Exclusion NG 2) | 24.9 nM | 22.6 nM | – | 17.4 nM | –
11 | AACAAUAAGGAGGAUAUCGUAUCGGAAACGAUACGAGAAGGCUUAACAUGAGGAUCACCCAUGUUCCUCAAUAA [Fiskers Ex 6 - 23] (puzzle: Exclusion 6) | – | – | 33.1 nM | – | –
12 | GUAAAGUGAGGAUAUGCUGGAGGUGUAUUCUACGUGUCGAAACAUGAGGAUCACCCAUGUAGAAGGCACGGGCG [Sozaquce] (puzzle: Exclusion 2) | – | – | 10 nM | – | –
13 | AAAUGAUGAGGAUAUACAUGAGGAUCACCCAUGUGUAAAAAUAAAUACACAAAAGAAAGUAGAAGGCAUCAAAA [Ex 3 May 12] (Eterna round: R96, puzzle: Exclusion 3) | – | – | – | 25.1 nM | –
14 | GCGCCAUCGUGAGAUGGCGUAAAUACAUGAGGAUCACCCAUGUAGGAUAUCGAUUGCUUUGCAGUCGAGAAGGGCAAGGUAUUU [JL ENG3 3.90] (Eterna round: R96, puzzle: Exclusion NG 3) | 28.4 nM | 24.9 nM | – | 18.1 nM | –
15 | GGUACUAACACGAUAGUGUUAGUACUAUAAGCUUGUGUUACAUGAGGAUCACCCAUGUCCUCAUAGGCUCGUCUUAG [Mat - Sensor v3 - Turn-off var 2 - D85] (puzzle: Sensor v3, turn-off variant 2) | – | – | 23.1 nM | – | apparent KD of MS2 coat protein [2]: 87.1 nM; apparent KD of MS2 coat protein [3]: 106 nM
16 | UUUUAACAUGAGGAUCACCCAUGUGAGGAUAUCGAAAUUUAUAUUAAUAUUUAUAAAUCGAGAAGGCACAUUUU [JMF 52] (puzzle: Exclusion 1) | – | – | 139 nM | – | –
17 | GGUCGUAUGAGUAGUCCUCAUUGAAGAGAUUGGUAAGAUACAUGAGGAUCACCCAUGUUUGAACAAGCUUUUGCUCU [JR_Sv3TOV2_Sub008] (puzzle: Sensor v3, turn-off variant 2) | – | – | 41.9 nM | – | apparent KD of MS2 coat protein [2]: 96 nM; apparent KD of MS2 coat protein [3]: 120 nM
18 | CAGGAUAGAGGAUAUGCAUAGAUACAGAUUCAUGUAAUCCUACAUGAGGAUCACCCAUGUAGAAGGCUAUCCUG [Fiskers Ex 2 - 17] (puzzle: Exclusion 2) | – | – | 14.7 nM | – | –

Row | Sequence | apparent KD of MS2 coat protein (input ligand: FMN 200 uM) | apparent KD of MS2 coat protein (input ligand: none) | apparent KD of MS2 coat protein [1] | apparent KD of MS2 coat protein [4] | other results
19 | CUCCGGCGUGUAGGAUAUGGAUCCGAUUAGGAUCCAGAAGGACAUGAGGAUCACCCAUGUACAUGUAAACAGUCAUCACCGGAC [salish99_ExNG1_r04_204] (Eterna round: R96, puzzle: Exclusion NG 1) | 155 nM | 18.7 nM | – | 10.4 nM | –
20 | UAUAUAUAGUAAGGAUAUGUAAUUAUUUUGUAAACAGAAGGUACUGACAUGAGGAUCACCCAUGUUUUAGUGUGGGCAUGUAGA [JMF's solution 44] (Eterna round: R96, puzzle: Exclusion NG 1) | – | – | – | 84.5 nM | –
21 | CAUUACUGCAAGCUUUGGGACAUGAGGAUCACCCAUGUUCGUCUUAUUGAUCUAGGUACGCUGACGUACCUAGAUCU [JL-sv1-2.27 Brourd mod] (puzzle: Sensor v3, turn-off variant 1) | – | – | 28.9 nM | – | apparent KD of MS2 coat protein [2]: 17 nM; apparent KD of MS2 coat protein [3]: 15.4 nM
22 | UAUAACCAAGGAUAUACAUGAGGAUCACCCAUGUAAUAUAAAAUAAAAUAAAUAAAAUGUAGAAGGUGGGAUAU (Eterna round: R97, puzzle: Exclusion 3) | 40.8 nM | 37.6 nM | – | – | –
23 | UAUAUAUAGUAAGGAUAUGUAUAUAUUCUAUAAACAGAAGGUACUGACAUGAGGAUCACCCAUGUUUUAGUGUGGGCAUGUAGA [JMF's solution 62] (Eterna round: R96, puzzle: Exclusion NG 1) | – | – | – | 27.4 nM | –
24 | AUUAGCGUAGGAUAUUAGUACAUGUACAUGAGGAUCACCCAUGUGAGGUGAGUCUUAGAUUAAGAAGGGCGAAGAA [EX5 #34] (Eterna round: R97, puzzle: Exclusion 5) | 309 nM | 704 nM | – | – | –
25 | GUUUGAUGAGGAUAUCGAGGUUAGUACAUGAGGAUCACCCAUGUUAUCCAGGUGUCGGUUCGAGAAGGUAUUGGAC [LRO-Ex5-15] (puzzle: Exclusion 5) | – | – | 18.6 nM | – | –
26 | AGGGCACGAGGAUAUGUGAAACUGGACUUGAGGAUCACCCAAGUCGUCUUCGUGUCCAAAGCAGAAGGCGUGGCCA [Zaesce] (Eterna round: R97, puzzle: Exclusion 5) | 13.8 nM | 10.4 nM | – | – | –
27 | AGUAUGUUAGGAUAUUCCAUUGCUGUCAGCUCGGCGUCACAGAAGAAGGGACAUGAGGAUCACCCAUGUUAGGC [Eternabot (L1) Solution 96] (Eterna round: R97, puzzle: Exclusion 4) | 57.3 nM | 71.4 nM | – | – | –
28 | UAAUACAAGUAAAGAUCCUACAUGAGGAUCACCCAUGUGCUCGUCUUGUAAAGUACUAUCACGAAAGUGAUAGUACU [Mat - Sensor v3 - turn-off var 1 - Eli Mod - D86] (puzzle: Sensor v3, turn-off variant 1) | – | – | 22 nM | – | apparent KD of MS2 coat protein [2]: 30.3 nM; apparent KD of MS2 coat protein [3]: 44.8 nM
29 | CUUAGACAUGAGGAUCACCCAUGUCAGGAUAUCGUCUACCUGUGGAAACACAGGUAGACGAGAAGGGAUGUGUU [SS1 Omei 3] (puzzle: Exclusion 1) | – | – | 37.8 nM | – | –
30 | UCAUGUUAGCAGGAUAUGCUAUUUAUCUUUUAUGCAGAAGGGCUUACAUGAGGAUCACCCAUGUAUUAAGUCUU [JR_E6_Sub075] (puzzle: Exclusion 6) | – | – | 18 nM | – | –
31 | AUAGAUCGAGUUAGGAUAUUGCAGGCCGAGUACAGCAAGAAGGAACAUGAGGAUCACCCAUGUAAACGUGGCUC [Eternabot (L1) Solution 53] (Eterna round: R97, puzzle: Brourd's mod of Exclusion 4) | 25.9 nM | 17.7 nM | – | – | –
32 | AGAUGCUCAAGUCGACAUGAGGAUCACCCAUGUACAGUUAAUGAGGAUAUCCGAGAUAAAUAAUAGGAGAAGGCAUGAUCAUGA [Ex NG3 #4] (Eterna round: R96, puzzle: Exclusion NG 3) | 103 nM | 102 nM | – | 47.3 nM | –
33 | GUUUACAAGCUAAGAUCCUACAUGAGGAUCACCCAUGUGGUCCGGUGACGUGAGUCACCGGACUUAGCUCGUCUUGC [salish99_S_TOV1_R5_089] (Eterna round: R97, puzzle: Sensor, turn-off variant 1) | 36 nM | 37.2 nM | – | – | –
34 | GUAGUGACUCGAGGAUAUCCCGACUCCUGGUCAGGAGAAGGCGACGUCAUAGCACAUGAGGAUCACCCAUGUCUUACACAUACG [Eternabot solution 32] (Eterna round: R96, puzzle: Exclusion NG 1) | 25.6 nM | 23.9 nM | – | 19.5 nM | –
35 | CUAAAAGUCGAGGAUAUGCACCGGCUCGCUGACGCAGAAGGCGACACAUGAGGAUCACCCAUGUCGGUACGCGA [salish99_ex6_r004_451] (Eterna round: R97, puzzle: Exclusion 6) | 33.9 nM | 18.3 nM | – | – | –

Source: the supplement of paper PMC9170038
